Where no end group is shown, it is not given here.
What was measured:
[1] = biological target: norovirus GII.3 TCH strain virus-like particle (VLP) (norovirus GII.3 TCH strain); test: BLI (BLItz), biotinylated peptide on SA chip, VLP in solution
[2] = biological target: norovirus GII.17 Saitama strain virus-like particle (VLP) (norovirus GII.17 Saitama strain); test: as above

Row | Binder | Kd [1] [µM] | koff [1] [s⁻¹] | kon [1] [M⁻¹ s⁻¹] | Kd [2] [µM] | koff [2] [s⁻¹] | kon [2] [M⁻¹ s⁻¹]
1 | YVIRNSDRHN (also: biotinylated, residue not given here, spacer sequence added, letters and position not given here) [norovirus-binding peptide of SEQ ID NO: 43] | 0.0672 | 0.0793 | 1.18e+06 | 234 | 0.192 | 822
2 | ICSSWFPSVH (also: biotinylated, residue not given here, spacer sequence added, letters and position not given here) [norovirus-binding peptide of SEQ ID NO: 48] | 0.0303 | 0.0246 | 810000 | 0.0766 | 0.0978 | 1.28e+06
3 | KYRATICHTV (also: biotinylated, residue not given here, spacer sequence added, letters and position not given here) [norovirus-binding peptide of SEQ ID NO: 52] | 0.0138 | 0.0103 | 747000 | 0.0179 | 0.0232 | 1.29e+06
4 | YRRSKSEIFV (also: biotinylated, residue not given here, spacer sequence added, letters and position not given here) [norovirus-binding peptide of SEQ ID NO: 59] | 0.00887 | 0.00714 | 805000 | 0.383 | 0.0511 | 134000
5 | NFRVPIRFTH (also: biotinylated, residue not given here, spacer sequence added, letters and position not given here) [norovirus-binding peptide of SEQ ID NO: 131] | 157 | 0.262 | 1660 |  |  | 
6 | YVVASKSNRL (also: biotinylated, residue not given here, spacer sequence added, letters and position not given here) [norovirus-binding peptide of SEQ ID NO: 143] | 0.0135 | 0.0044 | 325000 |  |  | 
7 | VCVDNDISMS (also: biotinylated, residue not given here, spacer sequence added, letters and position not given here) [norovirus-binding peptide of SEQ ID NO: 150] | 0.437 | 0.0118 | 27000 | 2510 | 0.255 | 
8 | ECMGRRWMSS (also: biotinylated, residue not given here, spacer sequence added, letters and position not given here) [norovirus-binding peptide of SEQ ID NO: 154] | 0.123 | 0.0173 | 141000 |  |  | 
9 | VELFLLTSSC (also: biotinylated, residue not given here, spacer sequence added, letters and position not given here) [norovirus-binding peptide of SEQ ID NO: 155] | 803 | 0.0926 | 115 |  |  | 
10 | VVGFGRRSLF (also: biotinylated, residue not given here, spacer sequence added, letters and position not given here) [norovirus-binding peptide of SEQ ID NO: 156] | 1.06 | 0.0713 | 67300 | 234 | 0.0931 | 398
11 | SVMVTRSLFG (also: biotinylated, residue not given here, spacer sequence added, letters and position not given here) [norovirus-binding peptide of SEQ ID NO: 163] | 0.00766 | 0.00786 | 1.03e+06 | 0.168 | 0.0185 | 110000
12 | GCVGDLYCSA (cysteine pairing not given here; also: biotinylated, residue not given here, spacer sequence added, letters and position not given here) [norovirus-binding peptide of SEQ ID NO: 172] | 69.3 | 0.0131 | 189 |  |  | 
